Assays:
[1] = biological target: the molecule itself; test: AUC; sedimentation velocity of purified Atg11-His6, analysed with SEDFIT; also at 1.63 mg/ml and 0.15 mg/ml
[2] = biological target: T1, Atg9^core reconstituted in proteoliposomes (yeast, UniProt Q12142 281-779); test: co-floatation with proteoliposomes; Atg9-PLs mixed with one interaction partner in a Nycodenz step gradient, ultracentrifugation, floated fraction on SDS-PAGE; SUVs lacking Atg9^core as control; conditions: both partners purified
T1 construct: Atg9 core, yeast; Liposomes: 20 mol% cholesterol, 10 mol% POPE, 60 mol% POPC, 10 mol% POPS; protein:lipid 1:200; also called Atg9-PLs; Atg9 vesicles; source: reconstituted in liposomes by rapid dilution
T1 sequence (looked up): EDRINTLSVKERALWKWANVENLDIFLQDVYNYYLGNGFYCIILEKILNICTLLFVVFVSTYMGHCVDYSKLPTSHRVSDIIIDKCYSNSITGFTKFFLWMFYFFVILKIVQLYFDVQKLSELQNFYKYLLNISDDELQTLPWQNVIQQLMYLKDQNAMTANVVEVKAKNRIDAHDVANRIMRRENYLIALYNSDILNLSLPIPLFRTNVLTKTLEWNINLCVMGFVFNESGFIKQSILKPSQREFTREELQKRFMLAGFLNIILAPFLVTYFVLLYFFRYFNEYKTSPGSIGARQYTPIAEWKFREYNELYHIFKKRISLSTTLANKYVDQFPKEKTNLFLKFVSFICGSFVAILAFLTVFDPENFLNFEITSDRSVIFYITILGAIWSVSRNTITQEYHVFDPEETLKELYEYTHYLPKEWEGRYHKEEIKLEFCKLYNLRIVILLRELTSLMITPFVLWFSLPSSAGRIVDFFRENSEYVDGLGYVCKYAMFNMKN

- stoichiometry N [2]: 1
B1: recombinant purified Atg11 (Atg11-His6) (natural protein, yeast)
chain: GPMADADEYSTAPTQQEITPLQTTATIINAISGECITTNVDFFVSLDKFKQFIARKWKIPPDQLLILLPYGNKLKPSMFKELLINRSFTLNDFYVYDRRLFSLVSKPTPTNLLTSKDSNPMNSPNSNDLTETLEYLIKNSHISQYQGSDTIMIKPMPSPLEDADVDLSRLNYHSVTSLLTTNLGWLSALEIDVHYFKSLIPDIIAHIKRIFDGLTVCSQYLKLYCFDVESLYNSNVQFLNQLVDNGMTSKWEKCFNDTLSKLTALEGDSLQKFINIESLLENEKSVKILNHSINGKLNKIKREIDENASFRDIITVNIDRLRQMFTPNESKFELEDQMAESFEVLVSEMRTRSRNVLDKEEEEFNSQEFLKSMNVMLEKDKKESVKTLFTISQALYSQIGELIDLKKSLQKHAVAILGNIAFTQMEILGIKRLLLNECNKDLELYKKYEVEFAQVEDLPLIYGLYLIEKYRRLSWFQQILSFISNFNQDLELFKQNELRTRNKWVKNFGSIATVFCEDLLSSSDFKRLNEYHSHTSPPNEDEEDENENSIANYRQDLVKVSQAIDNYMTQIKETDVSEPIIDLLSKTLFETKRFHIIYSNFKNNNNNSSNGNSISPEGSIALKSDDVVKGYKTRIKKLESLLHEFQYSDIGHWPQGVLNTHLKPFRGSATSINKKKFLGASVLLEPANISEVNIDSVSQANNHQIQELESNVDDLLHQLQLLKEENNRKSMQISEMGKKISDLEVEKTAYRETLTNLNQELARLTNEEQSHRTEIFTLNASFKKQLNDIISQDNEKIEKLTGDYDDVSKSRERLQMDLDESNKKHEQEVNLLKADIERLGKQIVTSEKSYAETNSSSMEKGEKFETIPLAEDPGRENQISAYTQTLQDRIFDIISTNIFILENIGLLLTFDNNNNIQIRRVKGLKKGTAQSNILDESTQMLDAHDNSLIKSPVFQKLKDEYELIKSVANGSEKDTQQSIFLGNITQLYDNKLYEVAVIRRFKDIETLAKKLTKENKIKRTLLERFQREKVTLRNFQIGDLALFLPTRENVNSVGSMSSSTSSLSSSFSSVDLSTPPPLDAMSIQSSPSVIHSNVINQASISGRDKNKLMRPWAAFTAFEESTRYFLKDEKGLTKGKEWFVGRIVTLEHFVADSPSNNPFRLPKGSVWFQVTAVVVSYQGV
modifications: Atto565 label in the GUV experiments
notes: N-terminal residual glycine-proline from PreScission protease digestion; Atg11, yeast; expressed from pCoofy37-Atg11; measured molecular weight 136 kDa; also called His-tagged Atg11; Atg11^Atto565; source: E. coli BL21 (DE3), coexpressed with chaperones from pG-KJE8, purified (Ni-NTA, PreScission digestion, gel filtration); not shown: His6, C-terminal, kept
- stoichiometry N [1]: 2
